Measured values as given in paper PMC11329700, “Dynamin 1xA interacts with Endophilin A1 via its spliced long C-terminus for ultrafast endocytosis” (The EMBO Journal, 2024).
Substitutions are numbered along the chain they refer to.

T1: GST-Dyn1xA-PRR (dynamin 1xA proline-rich region, amino acids 746-864) (rat, UniProt P21575 746-864)
T1 construct: also called full-length Dyn1xA-PRR; source: E. coli JM109; GST fusion on GSH-sepharose beads (pull-down), GST-tagged in solution (ELISA)
T1 sequence (looked up): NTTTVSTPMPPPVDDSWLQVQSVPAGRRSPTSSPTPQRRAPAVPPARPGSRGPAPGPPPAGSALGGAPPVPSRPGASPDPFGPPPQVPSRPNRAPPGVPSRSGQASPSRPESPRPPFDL

T2: GST-dyn1xA-PRR R838A (rat, UniProt P21575 746-864, R838A)
T2 construct: also called R838A (Dyn1xA-PRR); source: E. coli JM109; GST fusion on GSH-sepharose beads
T2 sequence (looked up): T1 sequence (looked up) with R93A

T3: Dyn1xA-PRR 746-864 (GST tag removed) (rat, UniProt P21575 746-864)
T3 construct: For SEC-MALS the removal is surmised from the predicted 19.4 kDa of the 1:1 complex; source: E. coli, 15N- or 15N,13C-labelled for NMR, GST cleaved, purified by gel filtration
T3 sequence (looked up): T1 sequence (looked up)

B1: His-tagged mouse Endophilin A1 SH3 domain (domain or fragment)
chain: not shown
notes: Endophilin A1, mouse, SH3 domain; The methods describe only a GST-Endophilin A1-SH3 construct (mouse, amino acids 292-352); the His-tagged construct of the ELISA is not described; also called His-tagged mouse Endophilin-SH3 domain
B2: GST-Dyn1xA-PRR 806-864 (domain or fragment, rat, UniProt P21575 806-864, looked up)
chain: GSALGGAPPVPSRPGASPDPFGPPPQVPSRPNRAPPGVPSRSGQASPSRPESPRPPFDL
notes: source: E. coli JM109; GST fusion on GSH-sepharose beads (pull-down), GST-tagged in solution (ELISA)
B3: Amphiphysin 1 (natural protein, UniProt O08838 1-683, looked up)
chain: MADIKTGIFAKNVQKRLNRAQEKVLQKLGKADETKDEQFEEYVQNFKRQEAEGTRLQRELRGYLAAIKGMQEASMKLTESLHEVYEPDWYGREDVKMVGEKCDVLWEDFHQKLVDGSLLTLDTYLGQFPDIKNRIAKRSRKLVDYDSARHHLEALQSSKRKDESRISKAEEEFQKAQKVFEEFNVDLQEELPSLWSRRVGFYVNTFKNVSSLEAKFHKEIAVLCHKLYEVMTKLGDQHADKAFSIQGAPSDSGPLRIAKTPSPPEEASPLPSPTASPNHTLAPASPAPVRPRSPSQTRKGPPVPPLPKVTPTKELQQENIINFFEDNFVPEINVTTPSQNEVLEVKKEETLLDLDFDPFKPDVTPAGSAAATHSPMSQTLPWDLWTTSTDLVQPASGGSFNDFTQPQDTSLFTMQTDQNMAETEQALPTEPQAEEPPTTAAAPTAGLDLGLEMEEPKEEAAIPPGTDAGETVGTEGSTGEEAEAEKAALPAGEGESPEGAKIDVESTELASSESPQAAELEAGAPQEKVIPSVVIEPASNHEGEEHQETTTGTETREATEDVAPQGPAGEKQELATEPTPLDSQAATPAPAGAVDASLSAGDAAQELPPGFLYKVETLHDFEAANSDELTLQRGDVVLVVPSDSEADQDAGWLVGVKESDWLQYRDLATYKGLFPENFTRHLE
notes: Amphiphysin 1, rat, endogenous in synaptosomes, detected by Western blot; also called Amphiphysin I; source: endogenous, rat brain synaptosomal lysate
B4: Endophilin A1 SH3 domain (GST tag removed) (domain or fragment)
chain: not shown
notes: Endophilin A1, mouse, SH3 domain, amino acids 292-352 (methods); the results print residues D291-H352; Cleavage is stated for the NMR experiments; for SEC-MALS it is surmised from the predicted 19.4 kDa of the 1:1 complex; also called endophilin SH3; Endophilin A SH3; source: E. coli JM109, GST fusion, GST cleaved, purified by gel filtration
B5: Endophilin A1 (natural protein, UniProt O35179 1-352, looked up)
chain: MSVAGLKKQFHKATQKVSEKVGGAEGTKLDDDFKEMERKVDVTSRAVMEIMTKTIEYLQPNPASRAKLSMINTMSKIRGQEKGPGYPQAEALLAEAMLKFGRELGDDCNFGPALGEVGEAMRELSEVKDSLDMEVKQNFIDPLQNLHDKDLREIQHHLKKLEGRRLDFDYKKKRQGKIPDEELRQALEKFDESKEIAESSMFNLLEMDIEQVSQLSALVQAQLEYHKQAVQILQQVTVRLEERIRQASSQPRREYQPKPRMSLEFATGDGTQPNGGLSHTGTPKPAGVQMDQPCCRALYDFEPENEGELGFKEGDIITLTNQIDENWYEGMLHGQSGFFPINYVEILVALPH
notes: Endophilin-A1, rat, endogenous full-length protein of nerve terminals; The Western blots are probed with antibodies to Endophilin A; also called 40 kDa protein; source: endogenous, rat brain synaptosomal lysate

Legend:
[1] = biological target: T1, GST-Dyn1xA-PRR (dynamin 1xA …); assay: ELISA; His-tagged mouse Endophilin A1 SH3 domain coated onto a 96-well plate, overlaid with increasing concentrations of GST-tagged Dyn1-PRR peptides; two experiments with four replicates each; details: both partners purified
[2] = biological target: B1; assay: as above; details: both partners purified
GST-dyn1xA-PRR R838A = biological target: T2, GST-dyn1xA-PRR R838A; assay: pull-down; GST fusion proteins on GSH-sepharose beads incubated with pre-cleared rat brain synaptosomal lysate (20 mM Tris pH 7.4, 150 mM NaCl, 1% Triton X-100, 1 mM EDTA, 1 mM EGTA) at 4 °C for 1 h; bound proteins by Coomassie stain or Western blot (some blots quantified by densitometry); details: one partner purified
[3] = biological target: T3, Dyn1xA-PRR 746-864 (GST tag removed); assay: SEC-MALS; Superdex 75 10/300 GL, 20 mM HEPES, 100 mM NaCl, 1 mM DTT, 1 mM PMSF, pH 7.2; complex at 0.5 mg and diluted to one third (0.167 mg); details: both partners purified

Binder: B1
Kd [1]: 44 nM

Binder: B2
fold difference in affinity from xA 746-864 [2]: < 2 fold
fold higher affinity than xA 751-798 [2]: 5 fold

Binder: B3
binding relative to wild-type Dyn1xA-PRR (median) (GST-dyn1xA-PRR R838A): 14.2%

Binder: B4
stoichiometry N [3]: 1

Binder: B5
binding relative to wild-type Dyn1xA-PRR (median) (GST-dyn1xA-PRR R838A): 68.2%
